Measured values taken from patent publication CN116715768A.

Biological target: EGFRvIII (表皮生长因子受体III型突变体) (human) (UniProt P00533)
Test: flow cytometry; antibody supernatant on EGFRvIII-PBMC engineered cells, detected with anti-mouse-APC IgG

结合率 (APC阳性比率): 93.7%
B1: Anti EGFRvIII抗体 (抗EGFRvIII单克隆抗体) (antibody, V domains shown)
VH: QVQTQQSGTELVRPGALVKLSCKPSGFNIKDYYMHWVKQRPEQGLEWIGWIDPENGKTKYAPKFQGKAIITADRSSNTAYLQLSSLTSEDTAVYYCAGTADWGQGTTVTVSS
VL: DIQLTQSPLTLSVSIGQPASISCKSSQSLLHSDGETYLNWLLQRPGQSPKRLIYLVSKLDSGVPDRFTGTGSGTDFTLKISRVEAEDLGVYYCWQGKHFPYTFGGGTKLEI
